Measurements from article PMC7093453.

Experiments:
[1] = target: RC4C: Rba. sphaeroides reaction centre with SpyCatcherΔ attached to the N-terminus of PufL via a four residue linker (Rhodobacter sphaeroides) (UniProt P0C0Y9)
[2] = target: RCC: Rba. sphaeroides reaction centre with SpyCatcherΔ attached directly to the N-terminus of PufL (Rhodobacter sphaeroides) (UniProt P0C0Y9)
[3] = target: RCC: Rba. sphaeroides reaction centre with SpyCatcherΔ attached directly to the N-terminus of PufL (Rhodobacter sphaeroides) (UniProt P0C0Y9); remark: listed apart in the source
[4] = target: wild-type (WT) reaction centre (RC) of Rhodobacter sphaeroides (Rhodobacter sphaeroides) (UniProt P0C0Y8)

Work on “Td-dLHCII: SpyTagΔ added to the N-terminus of the truncated A. thaliana Lhcb1” yielded an E (P870): apparent energy transfer efficiency from the rate of RC P870 photobleaching (650 nm excitation), RC#LHCII chimera in solution [1] of 21% and an EFL: apparent energy transfer efficiency from quenching of LHC emission, RC#LHCII chimera in solution [1] of 20.3%.

“LHCI-Td: A. thaliana LHCI heterodimer of unadapted Lhca1 (L1) and SpyTagΔ-adapted Lhca4 (Td-L4) (from UniProt Q01667 36-241) (complex)” was tested, and the Ea4: apparent energy transfer efficiency for the LHCI#RC chimera, from E (P870) [2] was 20.1%, the E (P870): apparent energy transfer efficiency from the rate of RC P870 photobleaching (650 nm excitation), LHCI#RC chimera in solution [3] was 20.2% and the EFL: apparent energy transfer efficiency from quenching of LHC emission, LHCI#RC chimera in solution [3] was 20.7%. For the same substance, the E (P870): apparent energy transfer efficiency from the rate of RC P870 photobleaching (650 nm excitation), mixture in solution [4] was 1.3% and the EFL: apparent energy transfer efficiency from quenching of LHC emission, mixture in solution [4] was 10.3%.

In the case of “LHCII-T: full SpyTag sequence added to the C-terminus of the full A. thaliana Lhcb1”, the E (P870): apparent energy transfer efficiency from the rate of RC P870 photobleaching (650 nm excitation), LHCII#RC chimera in solution [3] was 22.8%, the EFL: apparent energy transfer efficiency from quenching of LHC emission, LHCII#RC chimera in solution [3] was 19.6% and the E (P870): apparent energy transfer efficiency from the rate of RC P870 photobleaching (650 nm excitation), mixture in solution [4] was 1.2%. The EFL: apparent energy transfer efficiency from quenching of LHC emission, mixture in solution [4] was 0.8%.

“Td-LHCI-Td: A. thaliana LHCI heterodimer of SpyTagΔ-adapted Lhca1 (Td-L1) and SpyTagΔ-adapted Lhca4 (Td-L4) (complex)” gave an Ea1: efficiency of energy transfer to the Lhca1-connected RC in the RC#LHCI#RC chimera, from E (P870) (Eq. 5) [2] of 13.9%, an Ea1: efficiency of energy transfer to the Lhca1-connected RC in the RC#LHCI#RC chimera, from EFL (Eq. 5) [2] of 10.4% and an E (P870): apparent energy transfer efficiency from the rate of RC P870 photobleaching (650 nm excitation), RC#LHCI#RC chimera in solution [3] of 29.1%. The EFL: apparent energy transfer efficiency from quenching of LHC emission, RC#LHCI#RC chimera in solution [3] was 27.4%, the E (P870): apparent energy transfer efficiency from the rate of RC P870 photobleaching (650 nm excitation), mixture in solution (molar ratio of RC to LHC two) [4] was 3.3% and the EFL: apparent energy transfer efficiency from quenching of LHC emission, mixture in solution [4] was 9.3%.
